Results taken from patent US20120022228A1, “PURIFICATION OF AMPHOTERIC PRODUCTS, OR OF PRODUCTS LIABLE TO BE CONVERTED INTO AMPHOTERIC PRODUCTS” (CENTRE NATIONAL DE LA RECHERCHE SCIENTIFIQUE, priority 2010, published 2012).
Peptide text beside a SMILES is read from it.

How the values were obtained:
Type in all cases: physicochemical
[1] = Partition of dipeptides between organic and aqueous phase as a function of percentage of deprotonation of the exchanger (FIG. 4); conditions: exchanger DEHPA deprotonated to 30%
From the text: FIG. 4 is a graphic representing the solubility of dipeptides in either an organic or an aqueous phase in function of the percentage of deprotonation of an exchanger dissolved in […]. In abscissae, the percentage of deprotonation of the exchanger is represented; said abscissae are graduated from 0 to 30%. The ordinates represent a partition coefficient between the organic phase and the aqueous phase, said ordinates being graduated from 0 to 1.
The Influence of the percentage of deprotonated exchanger over the CPC purification of dipeptides GG, GY and LV is determined. […]

[2] = Partition coefficient of SF328 evaluated by TLC in different biphasic solvent systems
Procedure: Partition coefficient of SF328 was evaluated by TLC in different biphasic solvent systems. In the elution mode, it is required that the KD value of the compound of interest lies between 0.2 and 5 (preferentially about 1).

[3] = CPC run in elution mode, stability of SF328 in the solvent system; conditions: MtBE/CH3CN/BuOH/Water 1% TFA (2:1:2:5, v/v), Example 54
Procedure: Only the system MtBE/CH3CN/BuOH/Water 1% TFA (2:1:2:5, v/v) was tested. The experimental conditions were: • Rotation speed: 1300 rpm. • Sample injected: 100 mg. • Elution mode: ascending. • Flow rate: 8 ml/min.
This system causes the degradation of SF328.

With `CC(C)C[C@H](N)C(=O)N[C@H](C(=O)O)C(C)C` [LV, LeucylValine] (H-Leu-Val-OH) the “peptide extraction (partition organic/aqueous phase)” value [1] was “improvement”.

With “H-Asp-Glu-Asn-Pro-Val-Val-His-Phe-Phe-Lys-Asn-Ile-Val-Thr-Pro-Arg-Thr-OH (H-DENPVVHFFKNIVTPRT-OH) [SF328]” the “Evaluation KD” value ([2]; BuOH/Acetic acid/Water (4:1:5, v/v)) was “average”, the “Evaluation KD” value ([2]; BuOH/Acetic acid/Water (5:1:4, v/v)) was “poor” and the “Evaluation KD” value ([2]; MtBE/CH3CN/BuOH/Water 1% TFA (2:1:2:5, v/v)) was “good”. The “Evaluation KD” value ([2]; MtBE/CH3CN/Water (2:2:3, v/v)) was “poor”, the “Evaluation KD” value ([2]; MtBE/CH3CN/Water (3:2:5, v/v)) was “average” and the “Stability in the solvent system” value [3] was “degradation”.
